The source of these data is patent publication US20230357323A1, “HUMAN IL23 RECEPTOR BINDING POLYPEPTIDES” (University of Washington, priority 2020, published 2023).

In one data set the target is T1, human IL-23R (hIL-23R) (Homo sapiens, UniProt Q5VWK5).
T1 construct: his tag (C); purchased
T1 sequence (Q5VWK5 24-629): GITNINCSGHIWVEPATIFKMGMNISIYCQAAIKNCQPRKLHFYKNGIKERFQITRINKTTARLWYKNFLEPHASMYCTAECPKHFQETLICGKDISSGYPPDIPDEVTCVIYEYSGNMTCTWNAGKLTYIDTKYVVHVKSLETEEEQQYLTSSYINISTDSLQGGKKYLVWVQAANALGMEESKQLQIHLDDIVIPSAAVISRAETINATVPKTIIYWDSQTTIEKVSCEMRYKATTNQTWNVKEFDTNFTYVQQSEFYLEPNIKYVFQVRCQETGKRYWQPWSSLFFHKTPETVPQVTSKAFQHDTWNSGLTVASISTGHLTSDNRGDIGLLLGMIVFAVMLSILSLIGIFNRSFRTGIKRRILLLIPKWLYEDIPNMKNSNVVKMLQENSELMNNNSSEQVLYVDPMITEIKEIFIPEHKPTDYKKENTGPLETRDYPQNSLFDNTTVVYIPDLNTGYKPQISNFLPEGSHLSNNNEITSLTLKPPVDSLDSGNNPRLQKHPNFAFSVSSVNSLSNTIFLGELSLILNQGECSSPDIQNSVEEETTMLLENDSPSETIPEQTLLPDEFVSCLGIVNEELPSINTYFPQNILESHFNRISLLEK
As to the kind of experiment: Biolayer interferometry (BLI) binding to hIL-23R. To be noted: biolayer interferometry binding titrations; read-out: affinity (KD) for hIL-23R. The source says:
Two designs, 23R_A (SEQ ID NO:10) and 23R_B (SEQ ID NO:110), were highly enriched in the final selection pool and were chosen for further biochemical characterization. Both designs are 3-helix bundles (54 and 53 residues, respectively) which incorporate the native Trp hotspot at the N-terminal end of a helix such that IL-23R residue D118 forms a helix-capping hydrogen bond with the Trp hotspot's free backbone amine, similar to the αD helix of p19 (FIG. 1D). In both designs, this central binding helix has a larger interaction surface with hIL-23R, mediated by additional de novo hotspots, than p19. […]
Variants were first screened for relative binding to hIL-23R with biolayer interferometry (BLI). hIL-23R was immobilized on the BLI sensor tips and binding to each variant in solution at a constant concentration (50 nM) was measured to qualitatively determine relative performance of the variants. For the best-performing variants, binding constants (KD, including kon, and koff) were quantitatively determined with BLI titration experiments in triplicate. […]
Qualitative and quantitative assessment of binding affinity was performed using biolayer interferometry (ForteBio Octet™ […] and associated software for analysis). […] Kinetic constants were determined from the mathematical fit of a 1:1 binding model.
A general note: In BLI a coated tip is dipped into the sample, and binding shifts an interference pattern.

Data set [1] can be described thus: Circular dichroism temperature and chemical denaturant (GuHCl) melts. Format: physicochemical. As for the experimental part:
FIG. 3. Stability analysis of B08, a representative affinity-matured combinatorial variant and BO4dslf02, a representative disulfide-stabilized variant. (A) Designed proteins were incubated in simulated gastric or intestinal fluids and degradation was assessed by SDS PAGE at 5, 15, 30 and 60 minutes, 4 and 24 hours. (B) Resistance to temperature and chemical denaturant (GuHCl) was assessed by circular dichroism, measuring the helical signature (signal at 222 nm) in the conditions shown normalized to baseline (25° C. and 0 M GuHCl).
CD spectra were recorded with a J-1500 Circular Dichroism Spectrometer (JASCO). Proteins were assayed at […] in DPBS free of MgCl2 and […]. (Life Technologies) with guanidinium hydrochloride from 0 to 6 M, and data were collected at 25° C. For temperature melts, proteins at […] were heated from 25° C. to 95° C. over approximately 1.5 hours.

Read-outs that look alike come from different tables or passages of the source.

B1: … (protein)
chain 1: MESEKYLRELVKKYYEGKLSVQEAVEEVRKYARKKGLEAWMLTWMFMELVKRYI
chain 2: B1 chain 1
notes: computational design, 3-helix bundle, 54 residues
For B1, in the data set with human IL-23R (hIL-23R), the Kd is 26 ± 1 nM. For the same molecule, in data set [1] (high temperature and high concentrations of chemical denaturant), the “stability by circular dichroism (CD)” value was “high stability”.

B2: NLWQIFYQLSTILKRTGDPTAKKLLKALAEALKKGDEKALKELAKKATKYIRS (protein)
chain 1: NLWQIFYQLSTILKRTGDPTAKKLLKALAEALKKGDEKALKELAKKATKYIRS
chain 2: B2 chain 1
notes: computational design, 3-helix bundle, 53 residues
Regarding B2, in the data set with human IL-23R (hIL-23R), the Kd turned out to be 70 ± 50 nM. Also, the “stability by circular dichroism (CD)” value in data set [1] is “high stability”.

By Kd is commonly meant the equilibrium constant for the complex coming apart.
